Reference: publication PMC12028538, “The Characterization of the Purine Nucleoside Phosphorylase from Agaricus bisporus and Its Potential Application in Reducing Purine Content in Beer” (Journal of Fungi, 2025)

Substrate: OC[C@H]1O[C@@H](n2cnc3c(O)ncnc32)[C@H](O)[C@@H]1O
Assay: HPLC of hypoxanthine formed, Michaelis-Menten fit
Assay type: biochemical, Agaricus bisporus
Conditions: phosphorolysis, potassium phosphate co-substrate (50 mM in the standard assay), pH 7.0, 60 °C, 0–16 mM inosine, b52 prints the unit as µmol

B1: AbPNP (Agaricus bisporus var. burnettii JB137-S8) (protein)
chain: MKTNILSTVEYIRSQLPPELQQPRVGIVCGSGLSGLAGIIQNIHTIPYANIPGFGTSTVPGHRSELAFGLLGKNGVPVVAMLGRFHFYEGHPLSTVVYPIRVMARLGITEILITNAAGSLNPDIPTGTIVVVHDHIAFPGMAGTNPLMGPQTSPEHPRFLALSDAYSPSLRRLLFLAAHQLSLSKSALAEGTYAWVSGPNYETPAEGILLRSIGVDVVGMSTVPEVLVAREEGLKVMVLSLVTNLVVIPPSYKSIREEVEAELAGQSFVTPEEQVVSHDEVLAVGKEKAEVIKSLVQRVVELLS
notes: N-terminal 6xHis tag; codon-optimized gene in pPIC9K, Pichia pastoris GS115, Ni-NTA purified
With B1 the Km was 7.10 µM and the kcat was 14.38 s⁻¹.
